Tests used:
Grb2 SH2 = Grb2 SH2 (UniProt P62993); assay: SH2 binding enrichment of the phosphorylated peptide, bacterial display (enrichment ratio); higher = better substrate or ligand; peptides without Tyr show the background
c-Src SH2 = assay: as above
SHP2-C SH2 = assay: as above
EPHB2 = EPHB2 (UniProt P29323); assay: phosphorylation enrichment, bacterial display (enrichment ratio); higher = better substrate or ligand; peptides without Tyr show the background
Fes = Fes (UniProt P07332); assay: as above
EPHB1 = EPHB1 (UniProt P54762); assay: as above
EPHB1, sequence (P54762 whole entry, looked up): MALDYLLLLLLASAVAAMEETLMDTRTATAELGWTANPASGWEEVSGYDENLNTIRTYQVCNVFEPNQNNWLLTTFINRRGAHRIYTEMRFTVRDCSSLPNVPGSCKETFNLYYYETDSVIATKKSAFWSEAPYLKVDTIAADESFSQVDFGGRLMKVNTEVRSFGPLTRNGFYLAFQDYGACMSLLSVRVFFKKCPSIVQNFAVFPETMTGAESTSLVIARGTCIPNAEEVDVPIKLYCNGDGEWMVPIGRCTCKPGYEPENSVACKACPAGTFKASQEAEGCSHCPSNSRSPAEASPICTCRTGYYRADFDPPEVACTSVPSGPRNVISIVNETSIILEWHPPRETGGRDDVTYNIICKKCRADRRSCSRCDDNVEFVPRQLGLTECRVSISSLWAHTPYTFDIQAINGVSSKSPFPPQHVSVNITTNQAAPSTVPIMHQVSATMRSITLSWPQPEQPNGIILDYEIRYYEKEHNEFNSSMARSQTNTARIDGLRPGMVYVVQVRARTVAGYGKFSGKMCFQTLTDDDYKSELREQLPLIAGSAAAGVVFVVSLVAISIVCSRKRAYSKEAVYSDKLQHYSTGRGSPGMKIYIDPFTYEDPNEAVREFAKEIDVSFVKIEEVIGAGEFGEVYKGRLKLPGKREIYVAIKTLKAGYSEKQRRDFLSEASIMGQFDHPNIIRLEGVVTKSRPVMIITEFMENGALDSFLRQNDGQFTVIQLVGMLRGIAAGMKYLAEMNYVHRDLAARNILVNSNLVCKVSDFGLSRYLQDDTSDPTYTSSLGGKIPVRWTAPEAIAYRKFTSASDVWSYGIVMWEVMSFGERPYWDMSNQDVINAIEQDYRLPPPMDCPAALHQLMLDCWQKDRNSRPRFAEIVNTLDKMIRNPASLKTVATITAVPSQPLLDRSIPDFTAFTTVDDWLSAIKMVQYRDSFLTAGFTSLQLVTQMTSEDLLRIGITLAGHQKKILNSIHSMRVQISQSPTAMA

Fyn = Fyn (UniProt P06241); assay: as above
Fyn, sequence (P06241 whole entry, looked up): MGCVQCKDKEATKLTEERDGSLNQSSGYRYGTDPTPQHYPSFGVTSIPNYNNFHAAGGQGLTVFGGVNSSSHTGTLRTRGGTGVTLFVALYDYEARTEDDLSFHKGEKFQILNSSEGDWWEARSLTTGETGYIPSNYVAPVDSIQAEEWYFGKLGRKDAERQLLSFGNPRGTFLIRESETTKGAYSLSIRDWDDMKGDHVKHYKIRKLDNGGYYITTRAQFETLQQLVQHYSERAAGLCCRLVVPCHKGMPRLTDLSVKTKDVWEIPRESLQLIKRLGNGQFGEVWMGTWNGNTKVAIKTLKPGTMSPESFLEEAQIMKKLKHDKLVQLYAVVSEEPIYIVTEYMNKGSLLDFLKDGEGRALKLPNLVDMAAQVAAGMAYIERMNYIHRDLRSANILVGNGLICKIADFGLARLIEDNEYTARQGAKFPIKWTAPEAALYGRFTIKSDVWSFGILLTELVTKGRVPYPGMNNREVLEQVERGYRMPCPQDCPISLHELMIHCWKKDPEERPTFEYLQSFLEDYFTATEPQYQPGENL

FGFR3 = FGFR3 (UniProt P22607); assay: as above
Jak2 = Jak2 (UniProt O60674); assay: as above
MERTK = MERTK (UniProt Q12866); assay: as above
MERTK, sequence (Q12866 whole entry, looked up): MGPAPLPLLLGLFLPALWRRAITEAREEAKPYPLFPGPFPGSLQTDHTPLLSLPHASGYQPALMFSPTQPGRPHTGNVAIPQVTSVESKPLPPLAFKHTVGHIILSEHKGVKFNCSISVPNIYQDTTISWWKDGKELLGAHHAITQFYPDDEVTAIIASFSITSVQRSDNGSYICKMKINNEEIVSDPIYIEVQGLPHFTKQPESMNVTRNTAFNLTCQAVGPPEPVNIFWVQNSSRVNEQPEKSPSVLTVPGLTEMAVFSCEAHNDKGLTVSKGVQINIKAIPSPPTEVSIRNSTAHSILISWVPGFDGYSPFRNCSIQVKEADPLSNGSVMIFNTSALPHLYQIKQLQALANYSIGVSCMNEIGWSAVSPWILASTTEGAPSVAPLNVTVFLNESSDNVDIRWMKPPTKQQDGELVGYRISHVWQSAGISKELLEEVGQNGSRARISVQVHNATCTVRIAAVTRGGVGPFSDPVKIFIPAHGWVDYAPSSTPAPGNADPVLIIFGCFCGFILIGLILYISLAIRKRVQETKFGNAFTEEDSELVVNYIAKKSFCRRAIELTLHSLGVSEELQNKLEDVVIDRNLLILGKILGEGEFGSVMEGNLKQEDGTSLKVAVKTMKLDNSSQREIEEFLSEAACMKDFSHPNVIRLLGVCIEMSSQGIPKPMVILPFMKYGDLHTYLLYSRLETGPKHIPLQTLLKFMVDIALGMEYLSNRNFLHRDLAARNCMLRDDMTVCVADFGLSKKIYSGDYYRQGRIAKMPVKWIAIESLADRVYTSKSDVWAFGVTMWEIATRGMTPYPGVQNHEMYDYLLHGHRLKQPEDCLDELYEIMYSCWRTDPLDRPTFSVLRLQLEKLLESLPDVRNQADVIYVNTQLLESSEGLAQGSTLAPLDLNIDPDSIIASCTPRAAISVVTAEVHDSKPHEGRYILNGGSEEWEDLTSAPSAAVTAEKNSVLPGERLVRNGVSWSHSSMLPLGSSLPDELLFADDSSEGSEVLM

FGFR1 = FGFR1 (UniProt P11362); assay: as above
FGFR1, sequence (P11362 whole entry, looked up): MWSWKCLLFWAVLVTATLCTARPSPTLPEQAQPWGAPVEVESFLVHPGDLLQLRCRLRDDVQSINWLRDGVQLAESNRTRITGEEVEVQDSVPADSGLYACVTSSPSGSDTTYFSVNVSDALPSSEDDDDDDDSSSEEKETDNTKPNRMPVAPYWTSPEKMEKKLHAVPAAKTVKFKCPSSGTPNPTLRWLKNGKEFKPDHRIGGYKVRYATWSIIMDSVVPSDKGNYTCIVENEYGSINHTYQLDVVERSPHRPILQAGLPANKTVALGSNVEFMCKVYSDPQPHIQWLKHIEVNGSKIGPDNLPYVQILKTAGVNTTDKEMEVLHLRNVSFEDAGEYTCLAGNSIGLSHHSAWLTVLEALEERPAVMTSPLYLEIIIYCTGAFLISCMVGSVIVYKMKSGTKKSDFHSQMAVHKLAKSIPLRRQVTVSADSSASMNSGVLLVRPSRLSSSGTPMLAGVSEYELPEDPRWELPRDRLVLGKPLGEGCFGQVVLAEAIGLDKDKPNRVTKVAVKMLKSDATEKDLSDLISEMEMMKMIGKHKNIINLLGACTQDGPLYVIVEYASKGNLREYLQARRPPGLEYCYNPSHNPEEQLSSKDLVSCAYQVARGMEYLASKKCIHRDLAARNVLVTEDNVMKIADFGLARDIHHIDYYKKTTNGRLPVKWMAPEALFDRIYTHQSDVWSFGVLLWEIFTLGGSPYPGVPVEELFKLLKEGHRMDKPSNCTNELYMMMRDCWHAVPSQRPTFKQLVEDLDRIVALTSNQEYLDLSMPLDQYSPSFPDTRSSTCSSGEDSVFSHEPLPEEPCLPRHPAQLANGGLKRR

Hck = Hck (UniProt P08631); assay: as above
Hck, sequence (P08631 whole entry, looked up): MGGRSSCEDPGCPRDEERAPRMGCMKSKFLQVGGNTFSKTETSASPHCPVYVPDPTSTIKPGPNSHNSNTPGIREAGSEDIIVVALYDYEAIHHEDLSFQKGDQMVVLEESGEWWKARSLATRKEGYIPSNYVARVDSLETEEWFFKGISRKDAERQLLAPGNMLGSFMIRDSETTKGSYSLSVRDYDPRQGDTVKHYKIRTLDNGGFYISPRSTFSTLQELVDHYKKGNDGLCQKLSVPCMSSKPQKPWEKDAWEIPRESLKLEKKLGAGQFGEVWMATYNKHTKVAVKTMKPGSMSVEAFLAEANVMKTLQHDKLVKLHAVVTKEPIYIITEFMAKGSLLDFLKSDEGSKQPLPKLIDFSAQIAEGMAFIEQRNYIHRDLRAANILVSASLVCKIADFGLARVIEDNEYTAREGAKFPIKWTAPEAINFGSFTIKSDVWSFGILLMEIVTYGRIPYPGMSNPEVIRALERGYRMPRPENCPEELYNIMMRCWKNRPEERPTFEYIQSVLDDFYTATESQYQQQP

c-Abl (mouse) = assay: as above
c-Src = assay: as above
AncSZ = assay: as above
Fer (mouse) = assay: as above
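Wherever SH2 binding enrichment of the phosphorylated peptide, bacterial display is given: peptide library displayed on the E. coli surface as eCPX fusions, selected cells deep-sequenced, score is each peptide's frequency after selection divided by its frequency in the input.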
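Wherever phosphorylation enrichment, bacterial display is given: 11-residue human phosphosite peptides and single-mutation variants displayed on the E. coli surface, counted by deep sequencing, each peptide's frequency after selection divided by its frequency in the unselected input library; frequency after pTyr selection over input frequency; kinase dosed for 20-30% of maximal phosphorylation in three min.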

EPHB2, sequence (P29323 whole entry, looked up): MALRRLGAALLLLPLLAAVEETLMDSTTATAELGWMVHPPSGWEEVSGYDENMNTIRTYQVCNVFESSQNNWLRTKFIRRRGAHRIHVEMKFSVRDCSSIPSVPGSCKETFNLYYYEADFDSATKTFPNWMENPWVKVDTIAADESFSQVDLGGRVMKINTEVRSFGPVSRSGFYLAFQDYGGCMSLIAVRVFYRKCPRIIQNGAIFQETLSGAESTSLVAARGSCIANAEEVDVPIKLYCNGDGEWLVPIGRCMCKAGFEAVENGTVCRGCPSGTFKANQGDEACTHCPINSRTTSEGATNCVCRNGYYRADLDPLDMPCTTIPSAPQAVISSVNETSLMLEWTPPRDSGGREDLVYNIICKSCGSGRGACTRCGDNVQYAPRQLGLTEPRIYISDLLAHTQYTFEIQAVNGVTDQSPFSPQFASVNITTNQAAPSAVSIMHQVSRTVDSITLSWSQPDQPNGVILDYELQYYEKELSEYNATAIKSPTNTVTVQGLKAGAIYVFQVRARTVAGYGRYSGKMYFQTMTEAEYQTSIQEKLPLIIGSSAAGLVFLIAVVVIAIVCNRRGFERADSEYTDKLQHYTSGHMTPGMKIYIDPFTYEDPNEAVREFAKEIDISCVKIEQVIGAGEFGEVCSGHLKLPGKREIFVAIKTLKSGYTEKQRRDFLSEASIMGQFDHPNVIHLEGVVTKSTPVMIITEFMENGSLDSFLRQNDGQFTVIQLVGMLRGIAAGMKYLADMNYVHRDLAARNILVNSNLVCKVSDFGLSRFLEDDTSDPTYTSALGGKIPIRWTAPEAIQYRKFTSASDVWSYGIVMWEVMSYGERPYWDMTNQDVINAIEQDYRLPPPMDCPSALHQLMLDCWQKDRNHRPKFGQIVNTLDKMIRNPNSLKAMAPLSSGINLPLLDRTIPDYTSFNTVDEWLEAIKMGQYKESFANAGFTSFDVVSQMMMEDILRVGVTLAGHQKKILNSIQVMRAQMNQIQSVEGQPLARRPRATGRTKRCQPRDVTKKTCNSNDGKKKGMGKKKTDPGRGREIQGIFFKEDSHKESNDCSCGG

| Sequence | SH2 binding enrichment (Grb2 SH2) | SH2 binding enrichment (c-Src SH2) | SH2 binding enrichment (SHP2-C SH2) | phosphorylation enrichment (EPHB2) | phosphorylation enrichment (Fes) | phosphorylation enrichment (EPHB1) | phosphorylation enrichment (Fyn) | phosphorylation enrichment (FGFR3) | phosphorylation enrichment (Jak2) | phosphorylation enrichment (MERTK) | phosphorylation enrichment (FGFR1) | phosphorylation enrichment (Hck) | phosphorylation enrichment (c-Abl (mouse)) | phosphorylation enrichment (c-Src) | phosphorylation enrichment (AncSZ) | phosphorylation enrichment (Fer (mouse)) |
| --- | --- | --- | --- | --- | --- | --- | --- | --- | --- | --- | --- | --- | --- | --- | --- | --- |
| VTPVMYTYDEY [COL10A1_Y623_G618V] | 1.05 | 2.44 | 0.685 | 0.798 | 1.05 | 0.633 | 1.61 | 0.795 | 0.917 | 0.912 | 0.637 | 0.932 | 0.568 | 2.22 | 1.15 | 0.542 |
| VVHSSYDEIEG [SEC24A_Y263] | 1.03 | 36.8 | 0.87 | 0.549 | 1.12 | 0.51 | 0.498 | 0.648 | 0.892 | 0.429 | 0.493 | 0.475 | 0.713 | 0.442 | 1.04 | 0.492 |
| WAFNLYDINKF [KCNIP3_Y174_D179Y_YF] | 0.905 | 0.519 | 0.731 | 3.11 | 1.26 | 2.22 | 2.08 | 0.669 | 0.933 | 3.37 | 0.497 | 3.36 | 0.662 | 1.61 | 1.02 | 4.81 |
| WDLSEYSYKDP [ITGA3_Y237] | 0.932 | 0.878 | 0.704 | 0.568 | 0.998 | 0.424 | 0.914 | 0.631 | 0.997 | 0.416 | 0.513 | 0.673 | 0.614 | 0.916 | 1.85 | 0.449 |
| WLFFRYLPIGC [ATP2A2_Y836_A838P] | 1.26 | 0.796 | 1.36 | 0.531 | 1.3 | 0.529 | 0.38 | 0.778 | 1.14 | 0.415 | 0.538 | 0.477 | 0.657 | 0.345 | 1.29 | 0.559 |
| WVYNHYRWFIW [BRCA2_Y2624_I2627F] | 0.966 | 0.666 | 0.733 | 0.466 | 1.24 | 0.506 | 0.441 | 0.667 | 1.15 | 0.418 | 0.406 | 0.403 | 0.777 | 0.433 | 1.12 | 0.49 |
| YARECYSALPQ [SARS2_Y52_G51C] | 0.74 | 0.776 | 0.753 | 0.868 | 0.972 | 0.712 | 0.636 | 1.57 | 0.666 | 1.7 | 2.42 | 3.13 | 0.716 | 0.676 | 1.16 | 0.663 |
| YFCRWYRNRKS [EREG_Y144] | 0.716 | 0.571 | 0.623 | 0.572 | 0.635 | 0.621 | 0.618 | 0.515 | 0.683 | 0.889 | 0.61 | 0.741 | 0.714 | 0.753 | 0.864 | 0.478 |
| YGAHKYHPLPV [OAT_Y55_N54K] | 1.65 | 1.36 | 1.74 | 0.39 | 0.892 | 0.371 | 0.611 | 0.403 | 0.557 | 0.442 | 0.444 | 0.787 | 0.498 | 0.562 | 0.657 | 1.08 |
| YGMQLYQNYMH [GRB14_Y347] | 6.36 | 1.6 | 1.22 | 12.4 | 1.02 | 9.11 | 4.92 | 0.909 | 0.727 | 3.75 | 0.888 | 4.84 | 1.2 | 3.97 | 1.11 | 8.99 |
